Experiments:
[1] = target: T1, ENOX2 (tNOX) (Homo sapiens) (UniProt Q16206); test: electrochemical (E-DNA, square wave voltammetry); settings: apparent Kd; 0.1-200 nM ENOX2; PBS with 1 mM MgCl2; internal methylene blue on thymine T21 (printed after ...CATCTTT); 5' disulfide linker reduced to thiol; EMSA: 0.7% agarose, 0.5x TBE (65 mM Tris, 22.5 mM boric acid, 1.25 mM EDTA, 0.5 mM MgCl2, 0.005% Tween-20, pH 8.3); E-DNA: PBS pH 7.4 (137 mM NaCl, 10 mM …)
T1 sequence: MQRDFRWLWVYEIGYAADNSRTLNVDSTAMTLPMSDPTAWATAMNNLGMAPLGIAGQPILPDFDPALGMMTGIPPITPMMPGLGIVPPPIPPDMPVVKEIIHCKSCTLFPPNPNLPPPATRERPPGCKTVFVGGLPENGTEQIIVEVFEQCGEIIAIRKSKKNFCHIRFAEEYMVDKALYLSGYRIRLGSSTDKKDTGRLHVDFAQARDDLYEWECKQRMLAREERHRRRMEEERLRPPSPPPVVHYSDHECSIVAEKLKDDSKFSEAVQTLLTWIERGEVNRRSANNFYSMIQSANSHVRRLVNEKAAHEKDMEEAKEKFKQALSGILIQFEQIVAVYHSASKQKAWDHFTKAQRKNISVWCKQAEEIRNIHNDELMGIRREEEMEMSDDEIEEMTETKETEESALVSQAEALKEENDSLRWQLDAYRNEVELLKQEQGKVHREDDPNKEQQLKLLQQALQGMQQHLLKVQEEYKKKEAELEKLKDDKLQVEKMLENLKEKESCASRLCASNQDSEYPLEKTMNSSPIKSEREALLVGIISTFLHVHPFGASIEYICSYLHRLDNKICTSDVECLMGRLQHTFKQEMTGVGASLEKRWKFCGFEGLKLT

[2] = target: T1, ENOX2 (tNOX) (Homo sapiens); test: EMSA; settings: apparent Kd; 1 nM aptamer, 0-100 nM ENOX2; 0.5 mM MgCl2; EMSA: 0.7% agarose, 0.5x TBE (65 mM Tris, 22.5 mM boric acid, 1.25 mM EDTA, 0.5 mM MgCl2, 0.005% Tween-20, pH 8.3); E-DNA: PBS pH 7.4 (137 mM NaCl, 10 mM …)

| Sequence | Kd [1] [nM] | Kd [2] [nM] |
| --- | --- | --- |
| TAAAGATCCCTGTTCATCTTTTCTCGAGTGTTCTTTAGAACAATGAATCTTT [ENOX2 E-DNA biosensor aptamer] | 6 |  |
| TTTTTTAGATCCCTGTTCATCTGTCTCGAGTGTTCTTTAATGATCTTTTT [ENOX2-binding aptamer, 5' fluorescein] |  | 0.4 |
